Experimental data from the RNAGym collection of RNA variant scans (doi:10.1073/pnas.2313332121).
Variants at the floor of the assay were thinned out.

B1: TPR 5TU (parent)
chain: GGAUCUUCUCGAUCUAACAAAAAAGACAAAUCUGCCACAAAGCUUGAGAGCAUCUUCGGAUGCAGAGGCGGCAGCCUUCGGUGGCGCGAUAGCGCCAACGUUCUCAACUAUGACACGCAAAACGCGUGCUCCGUUGAAUGGAGUUUAUCAUG

Variants of: B1
Experiment: polymerase ribozyme fitness, log enrichment relative to wild type (log ratio); higher = more active; in vitro selection for triplet polymerase activity
Outline: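 Streptavidin-bead capture of gel-excised extended constructs, followed by RT-PCR, closed a single triplicate in vitro selection round. That round began by annealing PCR-built, transcribed mutant libraries of each subunit of a heterodimeric triplet polymerase ribozyme with a biotinylated primer, the partner subunit and triplets, then incubating them frozen at −7 °C. After Illumina sequencing of inputs and outputs, genotypes needed ≥10 input reads and ≥1 read per output. Fitness is the base-2 logarithm of genotype enrichment over wild-type enrichment, using inverse-variance-weighted replicate averages.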

Variant | polymerase ribozyme fitness (log ratio)
A52C G58C C85A | -3.96
U53A G58C A66C G84A A91G U102G A119U C132A | ≤ -4.2
C51U C93G A120C G143C | -4.17
A52G C125U C131U G143U U146G | ≤ -4.2
U53G G59U C125U G141C | -3.86
A52G C57A G84A | -0.599
U53A C95A A120G | -1.57
A52G C69G C85G A97U G126A G141U | ≤ -4.2
A52C G80C G83U | ≤ -4.2
A52C C85G G92U | ≤ -4.2
A52G C95G A107G A120G U139C | -4.13
U53A C85U A137G A142C | -3.93
A52G A150C | -3.43
A52C C85U A121C U134C A142C | -2.29
U53A G74A U77A C96U G126C | ≤ -4.2
C54A A91G U104G U127A G152A | ≤ -4.2
U53G G141C | -2.53
A52G A60U G71A A121U U135G U148A | -4.18
A52G U55G G58A C95G U134A U139A | ≤ -4.2
C54A C85U C149G G152U | -4.15
A52U A89U C96A | -2.98

Variant | polymerase ribozyme fitness (log ratio)
U53C U55A C99U U111C | ≤ -4.2
U53A U82G G100A | ≤ -4.2
U53A C76A G84C A122U | ≤ -4.2
A52G A106U U135A | -1.7
A52U G84A | -2.18
A52U A60G C76U A89U C96U | -3.8
C54A C96U A113G | -3.11
C51U C93G C116U G141A | -3.75
A52U U55A A115U C118A G126U A150U | ≤ -4.2
U53G U55A | -1.92
U53A C95U A138C | ≤ -4.2
U53A G86C A91U | ≤ -4.2
U53G U61A A97G A113U | -4.18
A52G G84A G94U G143A | ≤ -4.2
A52G C69U A106C C125U | -4.12
U53A C96G | -2.55
A52G G59A G92A | -3.59
A52C C69A C87U U90C A142U | ≤ -4.2
A52C G71A C85A G94C G141U | ≤ -4.2
A52G G141U | 1
C51U U53A A110C C116A | ≤ -4.2

Variant | polymerase ribozyme fitness (log ratio)
C51U G62C G70A A115U C116A | ≤ -4.2
A52G G100U | -3.98
A52G C69U G143A | -2.71
U53G G58C C95G A122U | ≤ -4.2
U53A C75U G84C | -2.82
C51U G141A | 0.523
C51U U53C C63U G74C G86C A89U A113U | ≤ -4.2
A52C C54U U55G G67C G71U C85U G143C | ≤ -4.2
A52G C87U C116G A122C G136U | -2.85
C54A A91U U109C G140U U146C | ≤ -4.2
U53A C57G G74C C87A C93A C149A | ≤ -4.2
A52G C76A | -0.0301
U53G A64U C69U C76U A98U C108A | ≤ -4.2
A52U G80C G126A G133C | ≤ -4.2
U53A G126A | -0.879
U53A G126U | 0.134
U53A G81A C99U | -2.36
U53G G83U G86A U104C | ≤ -4.2
A52C G58C G88U | ≤ -4.2
A52U G74A G80C C95U A147C | ≤ -4.2
C54A A115C | -1.87

Variant | polymerase ribozyme fitness (log ratio)
A52G G83A | -0.0714
C51U G58C G62U C69U C96G | -3.67
A52C A66G C72A A97U C99A | ≤ -4.2
A52G C57A A66G G68C C93U U101G G112U G140C U145A | ≤ -4.2
A52U G84C C116U U146G | -4.11
A52C C57A C69U C85U | -3.07
C51U G94U | -1.45
U53C | -0.375
U53G | -1.68
U53A | -0.874
A52G G74C C87A A113U C125A G140U | ≤ -4.2
A52C U56C C103G G143C | -4.12
C51U G83U G86U G94A U135G U144G G152C | ≤ -4.2
A52G C57A G58A G83U C95U | -0.758
A52U G143U U148A | -4.01
U53G C125U | -1.66
U53A C54A U82A G141C | -2.84
A52G U53G A106C A119U G136U | ≤ -4.2
U53A G59A C85A G88A U151A | ≤ -4.2
A52C C93U G94C | -3.36
